Test results from patent US20070003556A1 (published 2007).

T1: CD22 (UniProt P20273 20-847, limits assumed)
T1 construct: whole, on cells; The assays used B-lymphoma cell lines Raji and Daudi, 'which are known to strongly express CD22'; also called CD22 on Raji cells; CD22 on Daudi cells
T1 sequence (looked up): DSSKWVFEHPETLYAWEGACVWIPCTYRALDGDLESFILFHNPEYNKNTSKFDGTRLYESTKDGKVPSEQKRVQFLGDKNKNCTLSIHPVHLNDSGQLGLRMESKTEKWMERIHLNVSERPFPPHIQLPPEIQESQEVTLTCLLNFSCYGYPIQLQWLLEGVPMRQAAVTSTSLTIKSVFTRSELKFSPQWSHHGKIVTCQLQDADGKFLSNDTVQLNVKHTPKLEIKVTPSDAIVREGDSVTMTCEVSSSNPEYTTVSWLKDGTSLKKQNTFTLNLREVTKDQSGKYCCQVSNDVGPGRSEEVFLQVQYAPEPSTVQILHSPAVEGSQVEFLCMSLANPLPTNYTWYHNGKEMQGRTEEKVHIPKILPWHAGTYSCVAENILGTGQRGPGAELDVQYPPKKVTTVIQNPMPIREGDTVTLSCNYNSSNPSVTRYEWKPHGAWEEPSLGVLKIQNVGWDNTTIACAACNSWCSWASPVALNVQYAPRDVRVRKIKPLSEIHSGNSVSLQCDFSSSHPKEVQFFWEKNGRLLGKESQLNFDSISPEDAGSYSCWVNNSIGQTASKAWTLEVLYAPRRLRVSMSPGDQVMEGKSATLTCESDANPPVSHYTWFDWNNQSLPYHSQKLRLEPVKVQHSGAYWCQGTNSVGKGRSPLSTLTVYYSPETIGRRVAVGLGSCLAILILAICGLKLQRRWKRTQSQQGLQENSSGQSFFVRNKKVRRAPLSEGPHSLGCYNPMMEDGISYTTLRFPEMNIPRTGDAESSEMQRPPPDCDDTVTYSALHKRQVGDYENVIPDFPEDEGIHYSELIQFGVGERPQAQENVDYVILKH

B1: RFB4 diabody (other)
chain: EVQLVESGGGLVKPGGSLKLSCAASGFAFSIYDMSWVRQTPEKRLEWVAYISSGGGTTYYPDTVKGRFTISRDNAKNTLYLQMSSLKSEDTAMYYCARHSGYGSSYGVLFAYWGQGTLVTVSAGGGGSDIQMTQTTSSLSASLGDRVTISCRASQDISNYLNWYQQKPDGTVKLLIYYTSILHSGVPSKFSGSGSGTDYSLTISNLEQEDFATYFCQQGNTLPWTFGGGTKLEIKDYKDDDDK
notes: Diabody: a non-covalent dimer of two identical VH-(5-mer linker)-VL-Flag fragments; Transiently expressed in COS7 cells and purified on anti-Flag M2 agarose; also called CD22 diabody; RFB4 DB
B2: LL2 diabody (other)
chain: QVQLQESGAELSKPGASVKMSCKASGYTFTSYWLHWIKQRPGQGLEWIGYINPRNDYTEYNQNFKDKATLTADKSSSTAYMQLSSLTSEDSAVYYCARRDITTFYWGQGTTLTVSSGGGGSDIQLTQSPSSLAVSAGENVTMSCKSSQSVLYSANHKNYLAWYQQKPGQSPKLLIYWASTRESGVPDRFTGSGSGTDFTLTISRVQVEDLAIYYCHQYLSSWTFGGGTKLEIKDYKDDDDK
notes: Diabody: a non-covalent dimer of two identical VH-(5-mer linker)-VL-Flag fragments; Expressed in DG44 cells and purified on anti-Flag M2 agarose; also called CD22 diabody; LL2 DB

What was measured:
CD22 [1] = target: T1, CD22; experiment: flow cytometry on Raji cells, diabody at 8 ug/mL, detected with anti-Flag M2 antibody and FITC-anti-mouse IgG
Experimental: (§1) Purified LL2 diabody and RFB4 diabody were added to cells of the B-lymphoma cell line, Raji, in PBS containing 2% FCS and 0.02% NaN₃ such that the final concentrations were 20 μg/mL and 8 μg/mL, respectively. After reacting on ice for one hour, anti-Flag M2 antibody was added to the mixture, and then reacted on ice for another one hour. The cells were washed and reacted with FITC-anti-mouse IgG on ice for 30 minutes. Diabody binding to the cell surface was measured by flow cytometry (EPICS ELITE, COULTER).

CD22 [2] = target: T1, CD22; experiment: flow cytometry on Raji cells, diabody at 20 ug/mL, detected with anti-Flag M2 antibody and FITC-anti-mouse IgG
Experimental: as §1

Binder	binding result (CD22 [1])	binding result (CD22 [2])
B1	binds	–
B2	–	binds
